test: soluble on expression in E. coli; label from the status in PepcDB or PDB records

Soluble on expression in E. coli, not soluble:
MGSDKIHHHHHHMTLTSDSWLTLIVSLPSASATARMRIWRAVKALGCAALRDGAYLLPAQAEQAAQLQMLADEALQEGGQAWLLQVQALDLAEQATFQALFDRTADYTPWLEELAQARQTLSALSAAELQRTQRKHARAYEVIRKIDFFPGETSIRADAQWRDFANALESMQSPGEPQPMAGRIARRDRMQYQGRVWATRRHLWVDRVASAWLIQRFIDPHARFLWLNTAADCPSDALGFDFDGATFSHVGERVTFEVLLASFGLEDDRGLSRLGAMVHALDVGGATTPEASGFEAVLAGARKRWPDDDALLVDIGGVLDSLHAHFSSSRKT
MGSDKIHHHHHHMTNAFKGIPEELLKPHASPCVSIFMPTSRTFPDNTQDPVRFKNLVSRAEADGIAFSTKREMAPLIERLRLLQDDASFWNHTLDGLAVFISPDYFRIFRLQQSVLEQAHVTDAFYIRPLIRIYQIVERFQVLALTRSEVKLYEGTRDHLDEIELAPEVPKTMTDALGTEITPPHMTIASYGGTGTAMRHGHSSRKDEEALDNERFFRAVDQGINEYHSSSSGLPLVLVALPEHQGLFRSISRNQRLVAEGIEIDPAALGLEAMRQKAWQVMEPYRERKIDQMIARFREAEGGKLGSDNPYAIAIAAVAGNVSHLLLDGQKFWPGQIDPVSGDILLDEASQASGRDVFEELGAAVLARGGEVLVLPSERMPSASGVAAIFRHD
MGSDKIHHHHHHMTNFPPLLLAYGLDLEGPIHRGIATYAKAMIRLLHQSGYPLHLLTGAGGLAQGRLASLSLHRHLDQPSNWSRIQLAQSYFAERLGRSRQTPIKVDSNLIIGDRIQYLQQIDQLINHPFFYRKLRLQAKISDRPFFLKTKNYPVVLTSSPLNLRVSSSSRLIQVIHDLIPLNYLRHPDEAVTFLRRLQATADYSDRIICLSETTRQQFLELFPQAESRTLTLYQPVSFSAEALALTDRPDFAAAVLRRYGLERDRYFFFVGAIEPRKNLETLIAAQQVAVLRTQLPLVIGGTADVHTQDYAQQLQQRSRSTDQILWTGYLTEAEKICLLRHCRALTFLSWQEGFGIPMIEAALCGRSSLLANIPVLREVMGAAATYANPQHPLEVADQLIQLGCYPAQLSELRSRATQQIQAFADGQVQQQIQQVLQSLIS
MGSDKIHHHHHHMTNVSGYHRPELHITAESGVLFAPAGVLLDDDTWHFFHQYRPSPDHGPRWAHQFAERTPFVWDICDDVLAPEGDETQVRAGSVVSNNGGVDLYFTSVVGPTSTIQLAHINNIRGTTELINEDELGLDPDVSRIGEVVGNTDGYVKFRSPCVIPGWEDQGNRDEGHSGWLMLAVTGPVEAPTVVVLDSPDGREWSITGPLSLNGLSGLESDEVLVAPRMIRLRDEVDHEIYDVLIVTIEQDGIDISGYLVGQLNGSEFDVKTPFTRIDFGHDFSRPRNTNYAETTIGYDFAHIFGLMNGVGRLDSPTEHLSWKEEGWANAISFPRIVTLQDGTVFQTPPEGLLDAIHESEAAAGWTGLCEIPSNSAVEVALKDQEGEIAATITHRHNQLVVDRSMNPNHAGDPHAIAPLTDDETDSLFIVVDGSTVEVFADGGYVSMASRVYFNNGPFSEFEVTTTGDASIIRQESHFPVDFSSVSLDIDDLTALMQFDENEPHEGPVR
MGSDKIHHHHHHMTPQPLADNLSPPDPARLAQSIKDWGRELGFQQVGISDVELGEHEAHLQRWLEAGYHGEMDYMAAHGSKRSRPAELVPGTLRVISLRMDYLPGDTRMAQVLATPEKAYVSRYALGRDYHKLIRKRLQQLAERIQAEVGPFGFRAFVDSAPVLEKAIAEQAGLGWIGKNTLVLNRKAGSYFFLGELFVDMPLPVDPAMDSEHCGRCSACLDICPTAAFVGPYRLDARRCISYLTIEYKGAIPLELRPLIGNRVFGCDDCQIVCPWNRFARPTGQGDFQPRHSLDNAELAELFLWSEEEFLGRTEGSPLRRAGYERWLRNLAVGLGNAPSTIPVLEALKARRGFPSELVREHVEWALRRHGET
MGSDKIHHHHHHMTPTAFNTGRVQVNKTIAELRSLGKDARERVPFSQLGQYQPLDRDSNQLMDRIRRLLIPELLPERTRRMAASPFAFFRGTAELMEADLRQQPNSTIETFVCGDAHIGNFGFYASPERRLLFDLNDFDEAGINPWEWDLKRLLVSVLLAAQANGIKEKKIKQFLPTVAASYRKSMKQMFTQTTLARFYPLNDVEKLIQASALTDADSQLLMTIINRASKRDSEQVVRKFTTLDSRGNLCFRENAPKTTHVTDDVTTHIATYFAAYRQTVRPDVNLLLSQYHLTDVVRHSVGVGSFGSRCYLVLLTSIDGSHLVLQIKEALPTRQQGSQTLAQLTVAQEQTEGQRIVDCQKILQSASDSFLGYFAGNQHSFYVRQFRDMKESIDLTQLDWGQLQTYANTCAWTLAIAHCQSPTAAMIRGYIGGGKQFDEQLAAFASAYAQQVQTDYESFVAYRLPTKQP
MGSDKIHHHHHHMTPTYDTLIIGAGIAGASLGYRLAGQQRVLLVERESQPGYHSTGRSAAMFMEAYGTPQIQALTRASRAFYEAPPQGFCEHPLLEPRGCLYVASLEQRELLEQTFAQNLANGTEVTLLDRDAALALIPSLRGETLAGAVLEPGAMDLDVHALHQGFLRGYRTAGGELRCNAELIQACYLDDVWQVELADGSRLQARCLVNAAGAWADRVAEQCGVARIGLQPCRRSAFTFPGPAEQDFTRWPAVIGVDESFYFKPDAGQLLGSPANADPVEPQDAAPEEFDVALGIYNIEAMTTLAIRRPSHTWAGLRSFVADGDLVIGFDAHAPAFFWLAAQGGYGIQSAAGASRLAADLLLGQPLCASLVSQGVAPERLSPARFQQP
MGSDKIHHHHHHMTQLELLLERIIDRVNVNLRHQKFDVGDYVRRQTPHLHYSKFYAFYGLSADDPVHFHFKNSSLAGSYLLGRVNVLHSALYKSDIRGDELKRKGQHFVCDGKMIPLHDDEVITIKDSFLNKTLVHSNSHDPESPEEFTIRNTVAMPYANIHGSLTEGSFIGSFATVDLSTIHNSVVRYFSYVQTGELVGKCVEPGQIWIKSGDELEFHYSFDKAILDKYISQEAGSCPTGVLMEFVEVRQEDFEEVFASGHMASGAGSASGASVSGYAVIKGDTVIGENVLVSQRAYLDNAWMGKGSNAQENCYIINSRLERNCVTAHGGKIINAHLGDMIFTGFNSFLQGSESSPLKIGDGCVVMPHTIIDLEEPLEIPAGHLVWGYIRNKADLAAHSISFEEFAKVDGEVTMGRMTFRGKGGPFLDSFKKRIKRILSENGAFFDGSEGTGHAQKGKNFTFNIIQPYQDGDPRGMYPTILIQPNNGS
MGSDKIHHHHHHMTQLPNFSQSLSQLIACPSISSTQPSWDQGNKEVIQLLATWFEQLDFNIEIQAVPNTSNKFNLLAKLGSGEGGLLLAGHSDTVPFDENRWQSNPHTVVNQDDKFFGLGTCDMKGFFAFILQVCKNLRADQLKKPLYILATADEETTMAGARFFAKSQAIKPDVAIIGEPTNLVPVVMHKGHMSHRISVEGKSGHSSKPNLGINAIEIMYKVIGQLIELKEKFQLNYENQAFDVPAPTLNLGAISGGDNANRICGHCHLDIDLRSLPGMSDDELINWLSEALKPLAELYPGRISFEEMHPSSPSFEQKKPSTLIDIAQEISGHSCCAVNYATEAPYIQQLGCQTIVLGPGSIDQAHQPNEFLAHSEIDKTEKLLTKMIQHYCL
MGSDKIHHHHHHMTSGLHISTSFDSGAIEVDALDHADDIRLRIRADSHADFRQWFHFRLQGAAGQACRLQFLNAGDCTYPDGWRDYRAVASYDRANWFRVPTRFDGQVLTVEFTPQHDSVWFAYFEPYPEERHLSLLATCQRSPLAKLSHLGSTVDGRDMTRVTVGQPGPGKKTIWMIARQHPGESMAEWFCEGVLQRLTGTGMWAHDPVARKLLESAVFHIVPNMNPDGSARGNLRTNAAGANLNREWMTPSPETSPEVWHVRRAIEATGCDLFFDIHGDEGLPYNFVAGSEMLPSFSEKQREEQTRFIEAFKRVTPDFQDVHGYAASKYNADALKLASKYVGHTFGCLSLTLEMPFKDNADLPDATVGWNGARSALLGTAMLEAILNFLG
MGSDKIHHHHHHMTTASTVYHYCGAESFFSIVRNGRLWVSDARKTNDRRELEWFKDLALKHIAKSAATGDKMLSDLHLALKVRFELLEDVSDYYVCCFSEKKDSVPQWVAYADRGTGFAIGFDVNALRKKIGAALLSPSYAPVPFGVGANGWGFGPVAYAEEGVANAQIDDLMSTIVSAPFVGEDVTDSARDHIDRVCAFCKHPDFQTEHEWRIVCNTSFLKKNAGLTGTDMLPDTKWRKGGYGLTPYRETVDVLDCVKEVIVGPGNADRDSIEYVKQFLRFSGVKAEVFLSVSPYR
MGSDKIHHHHHHMTTATQSSAPGVNVDQAEVEKFSALAARWWDPESEFKPLHAINPLRLGWIQETAGSLSGKRVLDMGCGGGILSESMAVAGAQVTGIDLAEKSLKIARLHGLESGVKVDYRAVPVEELAAEQPGQYDVVTCMEMLEHVPDPASVVRACAALAKPGGWVFFSTLNRNPKSFLFAIVGAEYVLRLLPRGTHSYDSFIKPSELATSARQAGLEPTGMRGMEYNPITQVYSLSANTSVNYLMSTRK
MGSDKIHHHHHHMTTFYSLKVARVEPETRDAVTITFAIPQALQAEYCFRPGQHLTLKARLGGEELRRCYSICRSRTPGEISVAVKAIDGGRFSRYAQQDIQQGMELEVMVPQGHFGYQPQAERQGEYLAIAAGSGITPMMAIISATLATEPQSRFTLIYGNRSSHSMMFRQALADLKDRYPQRLQVIHLFSQESMDSDLLQGRIDGDKLRQLADHLLDFSRFDEAFICGPAAMMDEAEATLRELGVAEKSIHLERFNTPGGNVKRVAGVQAEGRTVTIRQDGRDRLIALSAEDDSILDAALRQGADLPFACKGGVCATCKCKVLRGEVAMAANYSLEADELAAGYVLSCQSLPTSGDVVVDFDARGMA
MGSDKIHHHHHHMTTPLLEINDLVVSYQTAKGLVHAVNNVSLEVHPGQITAIVGESGSGKSTTAQAVIGLLADNAEVDSGRISFNGRSLVGLNAREWKNVRGTKIGLIPQDPNNSLNPVKTIGASVGEGLAIHKRGTAAERKKKVIELLERVGIDNPEVRYDQYPHELSGGMKQRALIAAAIALEPELIIADEPTSALDVTVQKIILDLLEDMQRELGMGILFITHDLAVAGDRADRIVVMQKGEVRESGYAASVLTDPQHEYSKKLLADAPSLTIGEIPTRVPAVDPEVAQAKGPLLVVDKFRKEHQRGKEGAFVAANDISFEVLPGTTHAIVGESGSGKTTLGRAIAMFNTPTSGSISVSGKDITNLSKAQQRELRQQIQLVYQNPYSSLDPRQTIGSTIAEPLRNFTKVSKQEADEKVAHYLELVALDPALATRRPRELSGGQRQRVAIARAMILEPELVVFDEAVSALDVTVQAQILRLLDDLQRELGLTYVFISHDLAVVREISDTVSVMSRGNQVELGKTAEVFNNPQTDFTRRLIDAIPGSRYRGGELNLGL
MGSDKIHHHHHHMTTSTPSASPLALSPSRANDYQQCPLLYRFRAIDKLPEPKTVAQVKGTLVHAVLEEMHGWPRNERLFPAAVKRLKPHWSLMCSKDTELVSLVPEEDTYDFLVECRSLLRGYFEMENPQGFDALACEMYVNATLPNGVPIRGFIDRVDKAPTGEIRVVDYKTGKKPIPRFSQQAQFQMRFYALVYWRIYGRIPDQLRLMYLKVADSMFLTPSREELEYFERDIQELWEKIVTDGETGQFRPKTSKLCGWCSFQNLCPAFDGTPPAYPGWPGIADAPPCSTVDASKGLTG
MGSDKIHHHHHHMTTSYTITCSRPTNYGAVLQTYGLNTALRKMGVDAKVLDYNPKYYYTSTQPLPIRMVRAVVRFPDLTKGRKVFGKFLEDYVPMSAKTYRTLAEIEADVPQADVYICGSDQIWNCKNKLNGKDDAFFLSFAPAKARKVAYAASIAMPEIPNNQKTRYHRLISDFDAVSVREPSSVPMLEDLGIDNVQSVIDPVFLLERNDWDVIADASDFVPTEDYVLVYGYNRQKDVYAYARRLAKKLGVKVYTIGTAIEDYTLDQDRYFWNASPNTFVNLVRNAKAVVTNSFHGTVFSIVYNKPFHFFTVKQTTNSRMLDLLDSLTLKDRHVVGEELLSNDIDYDRPNQLLAEAKKRSLGFLQTNVASYVSENKPMKG

Source: the DeepSol protein solubility set
